Measured values taken from the supplement of paper PMC9170038.

Tested on: MS2 coat protein
Test: apparent KD of MS2 coat protein; designed switch direction (-1 OFF switch, 1 ON switch): 1; higher = weaker reporter binding
Procedure, shortened: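 Three titration conditions were used: no input, 200 uM small-molecule ligand, and an oligonucleotide input. In each, SNAP-549-labelled MS2 coat protein was raised from 0.7 or 1.5 nM, doubling, to 3 µM over designed RNA switches transcribed on Illumina chips by stalled E. coli RNA polymerase. Curve fits of normalised cluster fluorescence gave values whose per-design median over clusters is the apparent KD.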

[1] = Eterna round: R95, input ligand: FMN 200 uM
[2] = Eterna round: R95, input ligand: microRNA oligo, concentration not stated
[3] = Eterna round: R95, input ligand: none
[4] = input ligand: microRNA oligo, concentration not stated

Sequence | apparent KD of MS2 coat protein [1] [nM] | apparent KD of MS2 coat protein [2] [nM] | apparent KD of MS2 coat protein [3] [nM] | apparent KD of MS2 coat protein (input ligand: FMN 200 uM) [nM] | apparent KD of MS2 coat protein [4] [nM] | apparent KD of MS2 coat protein (input ligand: none) [nM]
AUAAAACAUGAGGAUCACCCAUGUCAACAAAGUCGAGGAUAUGGGCAAAUAAAAUAAGAACCAGAAGGCGAUUAAU [salish99_ss1_r3_035] (puzzle: Same State 1) | 23.4 | 97.3 | 99 | – | – | –
AAACACAGCAUAACGCUGUGACAUGAGGAUCACCCAUGUACACAGGAUAUCAUGGCAUAACGCCAUGAGAAGGGUGAUCAAGAC [Arxeerte] (Eterna round: R96, puzzle: Same State NG 3) | – | – | – | 20.5 | 2.71 | 55.3
GGUAGGUUACUACCAAUACAUGAGGAUCACCCAUGUUAUCAUGAGGAUAUGGUACCUAUUUGGUACCAGAAGGCAUGUAUAAUU [Fiskers NG3ss - 19] (Eterna round: R96, puzzle: Same State NG 3) | – | – | – | 43.6 | 62.6 | 60.5
AGAGAGGAAGCUGAGGAUAUCGUAAGGAGGACAUGAGGAUCACCCAUGUGUGUGGAAUUGGAGGACGAGAAGGCAGAGGAGUGGG [JR_SS2_Sub055] (puzzle: Same State 2) | 33 | 35.2 | 34.6 | – | – | –
GGAGCCAAGGCAGGAUAUUCAUUAUAAAUAACAUGAGGAUCACCCAUGUUGGCCAGAAGGCCAUGGGAGAAGGGCCAUGGCUCG [Xeonanis - 13 mod24] (Eterna round: R96, puzzle: Same State NG 2) | – | – | – | 17.7 | 73.7 | 105
GGUAGGUUACUACCAAACAUGAGGAUCACCCAUGUAAGUGGGAAGGAUAUGGUACCUUUUAGGUACCAGAAGGUCCAUAUAAUU [JL Fiskers NG3ss - 2 mod 6] (Eterna round: R96, puzzle: Same State NG 3) | – | – | – | 177 | 2450 | 3220
AGUCCAGCCUGAGCUGGACAAAAGCAUGUACAUGAGGAUCACCCAUGUUCAUGUACAAGCUUUUUGCUCGUCUUAGU [salish99_208a_r3_061] (puzzle: Sensor for hsa-mir-208a) | 481 | 15.1 | 528 | – | – | –
GUAAUCGUUAUAGGAUAUCAUGAGGAUUACCCAUGAGAAGGGUGAUCCCGAUCCAUAUUCAGAAAAUGAAUGUGGAUAGAUUGC [Omei NG1 A] (Eterna round: R96, puzzle: Same State NG 1) | – | – | – | 46.8 | 20.6 | 55.4
AACAAUCUAUCUGAGGAUAUCAUGAUAUAAACAUGAGGAUCACCCAUGUGCAGGAAAACUGCAUAUGAGAAGGCAGAUAGAUUGA [salish99_ss2_r3_031] (puzzle: Same State 2) | 43 | 232 | 118 | – | – | –
UUGGGUUUGCGAGGAUAUCGUAUGUGAUUUGAACGAGAAGGCGCUAUUUAAAUUAUUUUAACAUAACAUGAGGAUCACCCAUGU [JR_SSNG1_Sub021] (Eterna round: R96, puzzle: Same State NG 1) | – | – | – | – | 14.2 | –
AUCCUACAUGAGGAUCACCCAUGUGACGCCUCAAUAGGAUAUCGGGCCCACAGUCGGGAACGAGAAGGAUUGAAGC [Beatonce] (puzzle: Same State 1) | 70 | 170 | 669 | – | – | –
GGUCGGAACCACAUGAGGAUCACCCAUGUUCCGGAAACGGCGCAGGAUAUCUGUCCGAAAAGGUCAGAGAAGGGUGAACCGACC [Fiskers NG3ss - 78] (Eterna round: R96, puzzle: Same State NG 3) | – | – | – | 462 | 314 | 236
UGAUGCCCAUCAGGAUAUGGGCCCAUGAGGAUCACCCAUGUAAAGUAGGUCCAACAGGGCCAAGUCUAGAAGGGAUGGCGGGCA [malcolm 80 ssNG2 F5+F7.1] (Eterna round: R96, puzzle: Same State NG 2) | – | – | – | 163 | 59.1 | 190
CUCAAACAUGAGGAUCACCCAUGUGUUGUCAUGGGAGGAUAUCCCAGUUCGGUGACGUCGGGAGAAGGCCUAUGUC [× ×•×ª×• ×ž×“×™× ×” × ×—×ª-15] (puzzle: Same State 1) | – | 77.7 | – | – | – | –
UUUAGUUGCGGGCAGGAUAUGUAUUAAUAUACAUGAGGAUCACCCAUGUGCGGGUAUAACACCCGACAGAAGGGCCAAUCGCGAC [Laonerce - 5] (puzzle: Same State 2) | 28.3 | 302 | 389 | – | – | –
ACGCAGCUGGGUGAGGAUAUCGGUGGUAAAACAUGAGGAUCACCCAUGUCCGAAGCUCGGACUUCCGAGAAGGCGCCCGGCCGCA [Atbeatve] (puzzle: Same State 2) | 14.6 | 65.2 | 83.1 | – | – | –

Sequence | apparent KD of MS2 coat protein [1] [nM] | apparent KD of MS2 coat protein [2] [nM] | apparent KD of MS2 coat protein [3] [nM] | apparent KD of MS2 coat protein (input ligand: FMN 200 uM) [nM] | apparent KD of MS2 coat protein [4] [nM] | apparent KD of MS2 coat protein (input ligand: none) [nM]
AAGUAACAUGAGGAUCACCCAUGUGAGGUGAGCGUAGGAUAUCGAGGAGGAAGGGUAGGUCGAGAAGGACGAGAAG [JR_SS1_Sub096] (puzzle: Same State 1) | 127 | 162 | 247 | – | – | –
ACUUAGUACAAUUUAGAUCUACAUGAGGAUCACCCAUGUACUGAGGAUAUCAGCUCGUUUAGAGCUGAGAAGGCAGUAGUACUA [SSNG3/9-A3] (Eterna round: R96, puzzle: Same State NG 3) | – | – | – | 46.7 | 26.2 | 61.9
UUGCGGAAUUAAGGAUAUUGAGUACAUAUGUUUAACAUGAGGAUCACCCAUGUGGGUUGCGGUAUCGAGAAGGUAACUUACUAC [salish99_SSNG2_r04_803] (Eterna round: R96, puzzle: Same State NG 2) | – | – | – | 110 | 80.5 | 102
AUCAAAACAAGUUGCAGUGUUCGUCUUUCACAUGAGGAUCACCCAUGUAAUAGCCCAGUGGAAGCGCUCGGGCUACC [Esgevexe] (puzzle: Sensor for hsa-mir-208a) | 38.7 | 25.6 | 47.9 | – | – | –
UAAAUGAAGUAAGGAUAUACAUGAGGAUCACUCGUAGAAGGUACUAUACAUGAGGAUCACCCAUGUGCCGGUCAGAAGACUGGA [Mat - Same State NG 1 - JL mod - D6] (Eterna round: R96, puzzle: Same State NG 1) | – | – | – | 804 | 533 | 943
AAUUAAGAUCAAGGAUAUCACGUCGAUUAGACGUGAGAAGGUGAUCAUAACAUGAGGAUCACCCAUGUAUUACAUGAAUUAAUU [SSNG1/2-B2] (Eterna round: R96, puzzle: Same State NG 1) | – | – | – | 85.7 | 330 | 397
UCGGGCUCUGCUCGUCUUGAGUUGCUCCCACAUGAGGAUCACCCAUGUAGUGUGCCUAUCAGCGCGCGGGUGACUUU [Riesonso] (puzzle: Sensor for hsa-mir-208a) | 328 | 133 | 350 | – | – | –
UUAAUCUGAACAUGAGGAUCACCCAUGUAUCUUAUUUUAGGACAGGAUAUAGAUGUUAAGAAUUACUAGAAGGGUCAGUAUAUU [JR_SSNG3_Sub011] (Eterna round: R96, puzzle: Same State NG 3) | – | – | – | 19.1 | 20.2 | 25.8
AUAAGGCAAGCUUUUUUCUCGUAGUGUAAACAUGAGGAUCACCCAUGUGCCCACCCUGGACCUUUGGAUCGCAGAAA [Geatxe] (puzzle: Sensor for hsa-mir-208a) | 30.5 | 25.9 | 25.9 | – | – | –
UUUAGUUGCGGGCAGGAUAUGUAUUAAAAUACAUGAGGAUCACCCAUGUGCGGGUAUAACACCCGACAGAAGGGCCAAUCGCGAC [Laonerce] (Eterna round: R96, puzzle: Same State 2) | – | – | – | 24.5 | 256 | 278
UCUUGGUUUUUGCUCGUUUUUUGUGUUGAACAUGAGGAUCACCCAUGUAUUGUACAAUCCGGUUUGAUGAUGGUCCA [JMF 47] (puzzle: Sensor for hsa-mir-208a) | 81.7 | 58.3 | 92.3 | – | – | –
GGAAUAUGAUGUUACAUGAGGAUCACCCAUGUAGUAAUAACUAAGGAUAUCUGAGGAGGAGGAGAAGAGAAGGUAGGAUCAUAA [AK SSNG3-V2-10] (Eterna round: R96, puzzle: Same State NG 3) | – | – | – | 23.8 | 22.2 | 33.2
GCUCAUAGUAUAUGGGUACAAGCUUUUUGACAUGAGGAUCACCCAUGUACUCGUCUUAUGUGCAGUCCGUAGACUGC [JL-shm-2.21 Brourd mod] (puzzle: Sensor for hsa-mir-208a) | 104 | 17.3 | 137 | – | – | –
CGUCGUUUGAUAGGAUAUCGCUAUACAUGAGGAUCACCCAUGUUUACCACGCUGGUUUUUCAUUCCGAGAAGGAUUCUGAUGUU [salish99_SSNG02_r04_021] (Eterna round: R96, puzzle: Same State NG 2) | – | – | – | 34.7 | 26 | 36.1
UUGAUAUGCGCAGGAUAUGGUGAGGAUCACCCACUAGAAGGGUGCACAUGAGAAUCGAACAUGAGGAUCACCCAUGUUCUGAGC (Eterna round: R96, puzzle: Same State NG 1) | – | – | – | 831 | 295 | 1030
